# Source: PMC4274631 (RNA, 2015)
# Read-outs that look alike come from different tables or passages of the source. Where no end group is shown, it is not given here. fluorescein = fluorescein label
# T1: Pct1 (Schizosaccharomyces pombe, UniProt Q9P6Q6)
# T1 sequence (Q9P6Q6 1-303): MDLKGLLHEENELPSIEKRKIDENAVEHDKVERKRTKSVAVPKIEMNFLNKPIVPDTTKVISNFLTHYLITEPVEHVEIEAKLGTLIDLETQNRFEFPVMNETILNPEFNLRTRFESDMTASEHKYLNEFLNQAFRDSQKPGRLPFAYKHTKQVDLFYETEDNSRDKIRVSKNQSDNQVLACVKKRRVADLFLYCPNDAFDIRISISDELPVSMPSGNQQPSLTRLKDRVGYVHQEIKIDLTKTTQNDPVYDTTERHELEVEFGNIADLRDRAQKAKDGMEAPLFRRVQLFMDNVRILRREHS
# T2: S. pombe RNA triphosphatase Pct1 (wild type) (S. pombe, UniProt Q9P6Q6 1-303)
# T2 sequence (looked up): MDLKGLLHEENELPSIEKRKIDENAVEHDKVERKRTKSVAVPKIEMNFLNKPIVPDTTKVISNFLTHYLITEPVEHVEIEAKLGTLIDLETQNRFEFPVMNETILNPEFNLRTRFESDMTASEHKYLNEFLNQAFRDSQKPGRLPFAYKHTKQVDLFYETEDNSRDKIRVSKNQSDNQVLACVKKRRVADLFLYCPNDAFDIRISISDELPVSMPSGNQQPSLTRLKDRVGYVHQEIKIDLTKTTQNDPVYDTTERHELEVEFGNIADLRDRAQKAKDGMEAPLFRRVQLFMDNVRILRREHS
# T3: S. pombe RNA triphosphatase Pct1 M100R (S. pombe, UniProt Q9P6Q6 1-303, M100R)
# T3 sequence (looked up): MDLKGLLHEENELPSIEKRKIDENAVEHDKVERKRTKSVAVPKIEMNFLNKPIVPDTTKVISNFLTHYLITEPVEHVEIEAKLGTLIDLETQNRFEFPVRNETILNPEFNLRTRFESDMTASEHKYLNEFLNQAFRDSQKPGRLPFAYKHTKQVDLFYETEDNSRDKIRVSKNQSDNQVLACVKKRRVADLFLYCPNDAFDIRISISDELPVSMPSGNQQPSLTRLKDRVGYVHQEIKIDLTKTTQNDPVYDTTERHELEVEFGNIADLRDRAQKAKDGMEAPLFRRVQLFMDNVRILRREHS
# T4: S. pombe RNA triphosphatase Pct1 M100A (S. pombe, UniProt Q9P6Q6 1-303, M100A)
# T4 sequence (looked up): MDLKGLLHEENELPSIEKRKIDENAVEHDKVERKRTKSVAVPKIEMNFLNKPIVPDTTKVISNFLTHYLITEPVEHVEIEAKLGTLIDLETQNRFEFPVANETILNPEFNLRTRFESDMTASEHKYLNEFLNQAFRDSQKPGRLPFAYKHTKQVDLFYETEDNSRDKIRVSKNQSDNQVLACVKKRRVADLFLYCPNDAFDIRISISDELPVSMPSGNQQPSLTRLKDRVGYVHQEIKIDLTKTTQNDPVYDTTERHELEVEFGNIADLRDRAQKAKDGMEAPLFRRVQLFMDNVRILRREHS
# T5: Pct1 M100A (Schizosaccharomyces pombe, UniProt Q9P6Q6, M100A)
# T5 sequence (Q9P6Q6 1-303 M100A): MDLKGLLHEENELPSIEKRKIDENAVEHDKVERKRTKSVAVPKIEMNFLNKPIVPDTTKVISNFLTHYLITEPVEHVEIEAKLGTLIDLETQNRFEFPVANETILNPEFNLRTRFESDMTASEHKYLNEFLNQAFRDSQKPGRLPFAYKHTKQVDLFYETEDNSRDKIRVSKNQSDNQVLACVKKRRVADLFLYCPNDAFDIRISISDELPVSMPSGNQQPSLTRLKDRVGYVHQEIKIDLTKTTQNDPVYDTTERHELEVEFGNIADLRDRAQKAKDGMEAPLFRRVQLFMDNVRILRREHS
# Columns and labels:
# [1] = tested on: Plus3 domain of Rtf1; conditions: phosphorylated CTR peptide; pdb 4L1U; ref Wier et al. 2013; cited from earlier work
# [2] = tested on: S. pombe RNA triphosphatase Pct1; conditions: ref Pei et al. 2001b; cited from earlier work
# [3] = target: T1, Pct1; assay type: binding, S. pombe; conditions: 180-fold higher than Kd for Spt5-(801–898)
# [4] = target: T2, S. pombe RNA triphosphatase Pct1 (wild …); assay: crystal structure
# [5] = target: T3, S. pombe RNA triphosphatase Pct1 M100R; assay: fluorescence polarisation
# [6] = target: T2, S. pombe RNA triphosphatase Pct1 (wild …); assay: fluorescence polarisation
# [7] = target: T4, S. pombe RNA triphosphatase Pct1 M100A; assay: fluorescence polarisation
# [8] = target: T5, Pct1 M100A; assay: Fluorescence polarization binding of Spt5-; parameters: species or system S. pombe; conditions: Pct1 M100A versus wild-type Pct1
# [9] = target: T2, S. pombe RNA triphosphatase Pct1 (wild …); assay: fluorescence polarisation; remark: listed apart in the source
# [10] = target: T2, S. pombe RNA triphosphatase Pct1 (wild …); assay: fluorescence polarisation; remark: listed apart in the source
molecule,measurement,setting,value
SGSRTPPMYGSQ,binding to Rtf1 Plus3 domain in crystal,[1],bound
O=P(O)(O)OP(=O)(O)OP(=O)(O)O [tripolyphosphate],competitive inhibition,[2],high-affinity competitive inhibitor
SGSKTPAWNSGSKTPAWNSGSK,Kd relative to the Kd of Pct1 for the longer Spt5-(801–898) ligand,[3],180 fold
"TPAWNSGSRTPAWNSGSK [18-mer Spt5-CTD peptide TPAWNSGSRTPAWNSGSK, Spt5-(845-862)]",stoichiometry N,[4],2 peptides per Pct1 homodimer
"BODIPY-FL-N(Cys)-Spt5-(801-898) (domain or fragment, S. pombe, BODIPY-FL at the N-terminus via maleimide chemistry (on the added N-terminal cysteine)) CISTADGPNVPNWAQGARTPAVANGSRTPAWNTGSRTPAWNSGSKTPAWNSGSRTPAWNSGNKTPAWNAGSRTPAWNSGNKTPAWNVGNKTPAWNSGAK",Kd,[5],21.4 ± 2.4 µM
same,Kd,[6],0.68 ± 0.1 µM
same,Kd,[7],1.4 ± 0.15 µM
"Spt5-(801–898): purified recombinant Spt5-(801–898) protein, comprising 10 nonamer repeats, labeled at the N-terminus with BODIPY-FL (protein, BODIPY-FL at the N-terminus via maleimide chemistry (on the added N-terminal cysteine)) CISTADGPNVPNWAQGARTPAVANGSRTPAWNTGSRTPAWNSGSKTPAWNSGSRTPAWNSGNKTPAWNAGSRTPAWNSGNKTPAWNVGNKTPAWNSGAK",effect of M100A on Spt5 CTD binding,[8],twofold
fluorescein-SGSKTPAWNSGSKTPAWNSGSK [fluorescein-labeled 22-amino acid synthetic Spt5 CTD peptide SGSKTPAWNSGSKTPAWNSGSK],Kd,[9],124 ± 10 µM
SGSKTPAWNSGSKTPAWNSGSK [unphosphorylated 22-amino acid synthetic Spt5 CTD peptide SGSKTPAWNSGSKTPAWNSGSK (untagged)],Ki,[10],79 ± 9 µM
